This is an account of results in US20250152717A1.

The assay addresses KRAS-G12V8-16 peptide (…) presented by HLA-A11 (human). Briefly: cell-based or functional assay.

B1: TCR 11N4A (TCR)
TCR alpha: QQKNDDQQVKQNSPSLSVQEGRISILNCDYTNSMFDYFLWYKKYPAEGPTFLISISSIKDKNEDGRFTVFLNKSAKHLSLHIVPSQPGDSAVYFCAASGVSGNTPLVFGKGTRLSVIANIQNPDPAVYQLRDSKSSDKSVCLFTDFDSQTNVSQSKDSDVYITDKCVLDMRSMDFKSNSAVAWSNKSDFACANAFNNSIIPEDTFFPSPESSCDVKLVEKSFETDTNLNFQNLSVIGFRILLLKVAGFNLLMTLRLWSS
TCR beta: GVTQTPRYLIKTRGQQVTLSCSPISGHRSVSWYQQTPGQGLQFLFEYFSETQRNKGNFPGRFSGRQFSNSRSEMNVSTLELGDSALYLCASSVGTVEQYFGPGTRLTVTEDLKNVFPPEVAVFEPSEAEISHTQKATLVCLATGFYPDHVELSWWVNGKEVHSGVCTDPQPLKEQPALNDSRYCLSSRLRVSATFWQNPRNHFRCQVQFYGLSENDEWTQDRAKPVTQIVSAEAWGRADCGFTSESYQQGVLSATILYEILLGKATLYAVLVSALVLMAMVKRKDSRG
For B1, the percent of TCR 11N4A-transduced T cells responding (CD137) to peptide was greater than 80%.
